One data set in a line: in vivo. It counts as in vivo, mouse. The following applies: male, C57/BL6, mouse, in vivo, iv, total radioactivity; for tissue uptake at 2 h / tissue uptake at 2.5 h: Biodistribution % ID/g. The protocol:
(§1) Pulmonary fibrosis was induced in 7-8-week-old male C57/BL6 mice by transtracheal administration of bleomycin (BM; 2.5 U/kg) in 50 μL of PBS under direct vision using a small cervical incision. Sham animals received only PBS. Animals were placed in a small-animal PET/SPECT/CT scanner (Triumph; TriFoil Imaging), equipped with inhalation anesthesia and heating pad. Each animal was anesthetized with isoflurane (4% for induction, 2-2.5% for maintenance in medical air) and body temperature was kept at 37-38° C. using a heating pad. The femoral vein was cannulated for intravenous delivery of the PET agent. Each mouse was injected with approximately 0.1 mL and 20-50 μCi of ^64Cu-CBP(n), 0.1 mL and 20-50 μCi of ^68Ga-CBP(n) and 0.1 mL and 10-20 μCi of Al^18F-CBP(n) in a 18 mM solution of sucrose in water, followed by saline flush. […] The lungs, blood, urine, heart, liver, left rectus femoris muscle, spleen, small intestine, kidneys, left femur bone were collected from all animals. The tissues were weighed, and radioactivity in each tissue was measured on a gamma counter (CobraII Auto gamma; Packard). The radioactivity in the lung was reported as percent injected dose per gram corrected with the average sham weight, which was calculated by dividing the counts of ^64Cu per average sham tissue weight in gram by the total of counts of the injected dose. The radioactivity in every other tissue was reported as percent injected dose per gram (% ID/g), which was calculated by dividing the counts of ^64Cu per gram of tissue by the total of counts of the injected dose. A p-value of less than 0.05 was considered significant. Uncertainties are expressed as the standard error of the mean.

Data set [1] deals with pulmonary fibrosis, C57/BL6 mice (bleomycin or sham). Kind of data set: in vivo. The conditions noted are these: for lung uptake in BM-treated (fibrotic) mice compared to sham, in words: biodistribution 2.5 hours after injection; for Biodistribution % ID/g, blood / Biodistribution % ID/g, heart / Biodistribution % ID/g, kidney / Biodistribution % ID/g, liver / Biodistribution % ID/g, lungs / Biodistribution % ID/g, sm. intestine / Biodistribution % ID/g, spleen / Biodistribution % ID/g, bone: male, C57/BL6, mouse; for Biodistribution % ID/g, blood / Biodistribution % ID/g, heart / Biodistribution % ID/g, kidney / Biodistribution % ID/g, liver / Biodistribution % ID/g, lungs / Biodistribution % ID/g, sm. intestine / Biodistribution % ID/g, spleen / route of excretion / Biodistribution % ID/g, bone: iv. It counts as in vivo, mouse. The protocol:
as §1

In the next data set the target is T1, rat tail collagen (Rattus norvegicus, UniProt P02454+P02466).
T1 construct: from tissue; host or cells: rat tail
T1 sequence (P02454 152-1207 limits assumed): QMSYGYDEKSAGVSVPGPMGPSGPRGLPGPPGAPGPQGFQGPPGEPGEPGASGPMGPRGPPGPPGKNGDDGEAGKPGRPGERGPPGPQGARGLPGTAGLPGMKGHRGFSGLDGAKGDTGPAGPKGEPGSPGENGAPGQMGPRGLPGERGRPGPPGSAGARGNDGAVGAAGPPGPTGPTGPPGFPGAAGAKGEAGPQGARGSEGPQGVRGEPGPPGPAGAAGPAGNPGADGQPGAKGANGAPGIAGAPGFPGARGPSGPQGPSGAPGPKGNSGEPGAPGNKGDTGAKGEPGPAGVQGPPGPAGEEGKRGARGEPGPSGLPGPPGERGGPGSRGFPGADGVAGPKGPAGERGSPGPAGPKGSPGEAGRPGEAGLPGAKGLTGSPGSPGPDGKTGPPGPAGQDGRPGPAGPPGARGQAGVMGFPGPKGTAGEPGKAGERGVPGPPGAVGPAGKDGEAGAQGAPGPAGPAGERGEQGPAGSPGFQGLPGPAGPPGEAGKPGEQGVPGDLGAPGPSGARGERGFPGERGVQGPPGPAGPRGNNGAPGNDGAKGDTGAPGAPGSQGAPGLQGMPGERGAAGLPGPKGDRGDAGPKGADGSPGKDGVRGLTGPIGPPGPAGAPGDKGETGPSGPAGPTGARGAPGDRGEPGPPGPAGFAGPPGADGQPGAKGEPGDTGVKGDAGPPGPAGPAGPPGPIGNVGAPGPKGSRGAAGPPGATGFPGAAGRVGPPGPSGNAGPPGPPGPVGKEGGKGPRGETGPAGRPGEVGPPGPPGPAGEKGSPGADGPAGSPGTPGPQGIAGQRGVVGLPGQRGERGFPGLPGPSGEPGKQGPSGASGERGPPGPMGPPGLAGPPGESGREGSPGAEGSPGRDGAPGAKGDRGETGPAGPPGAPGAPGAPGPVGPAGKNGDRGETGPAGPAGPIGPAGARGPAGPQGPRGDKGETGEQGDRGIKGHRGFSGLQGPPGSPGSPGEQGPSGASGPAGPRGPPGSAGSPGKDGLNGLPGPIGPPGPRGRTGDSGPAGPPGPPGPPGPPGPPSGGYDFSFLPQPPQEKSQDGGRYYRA
T1 sequence (P02466 86-1125 limits assumed): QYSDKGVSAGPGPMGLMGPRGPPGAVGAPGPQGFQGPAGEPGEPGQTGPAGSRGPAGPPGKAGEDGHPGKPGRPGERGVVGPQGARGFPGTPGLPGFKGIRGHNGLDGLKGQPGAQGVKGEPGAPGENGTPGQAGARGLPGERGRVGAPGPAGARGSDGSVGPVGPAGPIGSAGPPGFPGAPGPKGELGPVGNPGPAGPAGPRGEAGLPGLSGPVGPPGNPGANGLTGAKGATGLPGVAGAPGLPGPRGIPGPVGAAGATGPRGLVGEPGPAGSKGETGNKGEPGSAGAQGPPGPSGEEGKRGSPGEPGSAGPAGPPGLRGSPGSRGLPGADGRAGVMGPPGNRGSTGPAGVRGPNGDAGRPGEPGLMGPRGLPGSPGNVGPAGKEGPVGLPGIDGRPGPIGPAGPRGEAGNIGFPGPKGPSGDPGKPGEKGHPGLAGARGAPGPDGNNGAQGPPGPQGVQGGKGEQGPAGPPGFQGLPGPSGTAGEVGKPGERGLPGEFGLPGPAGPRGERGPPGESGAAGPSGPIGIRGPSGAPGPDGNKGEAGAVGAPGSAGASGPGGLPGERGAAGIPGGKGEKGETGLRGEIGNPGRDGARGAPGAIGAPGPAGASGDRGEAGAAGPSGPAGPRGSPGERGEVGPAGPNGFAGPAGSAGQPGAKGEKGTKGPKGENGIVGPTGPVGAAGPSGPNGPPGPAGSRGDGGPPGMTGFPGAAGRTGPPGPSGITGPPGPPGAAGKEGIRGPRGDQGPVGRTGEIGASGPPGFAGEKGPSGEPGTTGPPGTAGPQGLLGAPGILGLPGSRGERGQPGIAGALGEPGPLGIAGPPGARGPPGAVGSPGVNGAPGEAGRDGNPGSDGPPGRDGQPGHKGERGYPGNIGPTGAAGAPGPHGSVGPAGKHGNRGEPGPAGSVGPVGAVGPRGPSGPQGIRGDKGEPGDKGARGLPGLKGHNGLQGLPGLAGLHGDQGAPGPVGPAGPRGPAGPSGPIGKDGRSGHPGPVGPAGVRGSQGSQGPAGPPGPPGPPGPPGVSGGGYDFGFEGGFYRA
The data set is described as follows: rat tail collagen-binding assay. The conditions noted are these: 2 hours at room temperature, single binding site model. As for the experimental part:
Binding isotherms were obtained by following a method previously reported. (Caravan, P., Das, B., Dumas, S., Epstein, F. H., Helm, P. A., Jacques, V., Koerner, S., Kolodziej, A., Shen, L., Sun, W., Zhang, Z., Angewandte Chemie, 2007, 119(43), 8319-8321.) Briefly, increasing concentrations of a mixture of ^63/65Cu-CBP(n) and ^64Cu-CBP(n) were added to collagen containing wells. […] An aliquot of each solution was reserved as a measure of the total concentration. The plates were incubated on a shaker table (300 rpm) for 2 hours at room temperature to allow the compound to bind. After 2 hours, the supernatant from each well (with or without collagen) was assayed for ^64Cu content. The relative amount of free, unbound compound in the sample supernatants and the amount of compound in the reserved (total) sample were determined by using a gamma counter. The bound concentration is [Total]−[Free]. The concentration of ^63/65Cu-CBP(n) was less than the collagen concentration and the data were fit to a model of a single binding site with dissociation constant, Kd.

Where a SMILES comes first, the peptide text is derived from it. Bridges are numbered along the chain shown (N, C = ends). The star is where a group is joined. NODAGA = O=C(O)CN1CCN(CC(=O)O)CCN(C(CCC(=O)*)C(=O)O)CC1

We go through four compounds from patent US10471162B2, “Collagen targeted imaging probes” (priority 2014, dated 2019).

The tissue uptake is the percentage of the injected dose found per gram of tissue. Usually Kd stands for the concentration at which binding is half-saturated. Low readings indicate tighter binding, high ones weaker binding.

In the case of `CC(C)C[C@H](NC(=O)[C@@H]1CSSC[C@H](NC(=O)[C@H](Cc2c[nH]cn2)NC(=O)[C@H](Cc2c[nH]c3ccccc23)NC(=O)[C@H](CCC(N)=O)NC(=O)CNC(=O)CCC(C(=O)O)N2CCN(CC(=O)O)CCN(CC(=O)O)CC2)C(=O)N[C@@H](Cc2ccc(O)cc2)C(=O)N[C@@H]([C@@H](C)O)C(=O)N[C@@H](CC(C)C)C(=O)N[C@@H](Cc2ccccc2)C(=O)N2CCC[C@H]2C(=O)N[C@@H](Cc2c[nH]cn2)C(=O)N[C@@H](Cc2c[nH]cn2)C(=O)N[C@@H](Cc2ccc(O)cc2)C(=O)N1)C(=O)N[C@@H](Cc1ccc(O)cc1)C(=O)NCC(N)=O` (stereo partly drawn) [CBP6] ({NODAGA}-GQWHCYTLFPHHYCLYG-NH2; disulfide 5-14; C-terminus assumed), the tissue uptake at 2 h in “in vivo” (blood) is 0.147 ± 0.01 %ID/g. Moreover, in the data set “in vivo” (heart), the tissue uptake at 2 h is 0.121 ± 0.017 %ID/g. The tissue uptake at 2 h in “in vivo” (kidney) stood at 13.4 ± 1.23 %ID/g. Also, the tissue uptake at 2 h in the data set “in vivo” (liver) is 2.64 ± 0.144 %ID/g. The tissue uptake at 2 h in “in vivo” (lungs) came to 0.013 ± 0.002 %ID/g. In addition, the tissue uptake at 2 h in the data set “in vivo” (sm. intestine) is 0.747 ± 0.168 %ID/g. The tissue uptake at 2 h in “in vivo” (spleen) worked out at 0.669 ± 0.03 %ID/g. Also, the “lung uptake in BM-treated (fibrotic) mice compared to sham, in words” value in data set [1] is given as “greater lung uptake in BM-treated mice”. Moreover, in data set [1] (in vivo, 2 h), the “Biodistribution % ID/g, blood” value is 0.279 ± 0.096 % ID/g; the “Biodistribution % ID/g, heart” value stood at 0.156 ± 0.016 % ID/g; the “Biodistribution % ID/g, kidney” value amounted to 14.008 ± 0.727 % ID/g; the “Biodistribution % ID/g, liver” value was 2.503 ± 0.218 % ID/g. In data set [1] (in vivo, 2 h), the “Biodistribution % ID/g, lungs” value is on record as 0.019 ± 0.003 % ID/g; the “Biodistribution % ID/g, sm. intestine” value turned out to be 0.938 ± 0.164 % ID/g; the “Biodistribution % ID/g, spleen” value was determined as 0.775 ± 0.084 % ID/g. For the same compound, the route of excretion result in data set [1] (mouse, in vivo) was “excreted mainly through the kidneys”. Binding on rat tail collagen was put at a Kd of 14.6 ± 5.8 µM.

On to `CC(C)C[C@H](NC(=O)[C@@H]1CSSC[C@H](NC(=O)[C@H](Cc2c[nH]cn2)NC(=O)[C@H](Cc2c[nH]c3ccccc23)NC(=O)[C@H](CCCCNC(=O)CNC(=O)CN2CCN(CC(=O)O)CCN(CC(=O)O)CC2)NC(=O)CNC(=O)CN2CCN(CC(=O)O)CCN(CC(=O)O)CC2)C(=O)N[C@@H]([C@@H](C)O)C(=O)N[C@@H]([C@@H](C)O)C(=O)N[C@@H](CCCCNC(=O)CN2CCN(CC(=O)O)CCN(CC(=O)O)CC2)C(=O)N[C@@H](Cc2ccccc2)C(=O)N2CCC[C@H]2C(=O)N[C@@H](Cc2c[nH]cn2)C(=O)N[C@@H](Cc2c[nH]cn2)C(=O)N[C@@H](Cc2ccc(O)cc2)C(=O)N1)C(=O)N[C@@H](Cc1ccc(O)cc1)C(=O)N[C@@H](Cc1ccc(-c2ccccc2)cc1)C(N)=O` [CBP10, Al^18F-NOTA-cPep(7)], for which, in “in vivo” (bone), the tissue uptake at 2.5 h was found to be 2.53 ± 0.735 %ID/g. The tissue uptake at 2.5 h in the data set “in vivo” (kidney) came out at 26.2 ± 4.85 %ID/g. Moreover, the tissue uptake at 2.5 h in “in vivo” (liver) is 14 ± 1 %ID/g. For the same compound, the tissue uptake at 2.5 h in “in vivo” (sm. intestine) turned out to be 1.12 ± 0.48 %ID/g. In addition, in data set [1] (in vivo, 2.5 h), the “Biodistribution % ID/g, bone” value was 2.963 ± 0.716 % ID/g; the “Biodistribution % ID/g, kidney” value is recorded as 44.170 ± 16.811 % ID/g; the “Biodistribution % ID/g, liver” value is given as 27.231 ± 0.995 % ID/g; the “Biodistribution % ID/g, sm. intestine” value is 1.492 ± 0.542 % ID/g.

For the compound `CC(C)C[C@H](NC(=O)[C@@H]1CSSC[C@@H](NC(=O)[C@H](Cc2c[nH]cn2)NC(=O)[C@H](Cc2c[nH]c3ccccc23)NC(=O)[C@H](CCCCNC(=O)CNC(=O)CCC(C(=O)O)N2CCN(CC(=O)O)CCN(CC(=O)O)CC2)NC(=O)CNC(=O)CCC(C(=O)O)N2CCN(CC(=O)O)CCN(CC(=O)O)CC2)C(=O)N[C@@H]([C@@H](C)O)C(=O)N[C@@H]([C@@H](C)O)C(=O)N[C@@H](CCCCNC(=O)CCC(C(=O)O)N2CCN(CC(=O)O)CCN(CC(=O)O)CC2)C(=O)N[C@@H](Cc2ccccc2)C(=O)N2CCC[C@H]2C(=O)N[C@@H](Cc2c[nH]cn2)C(=O)N[C@@H](Cc2c[nH]cn2)C(=O)N[C@@H](Cc2ccc(O)cc2)C(=O)N1)C(=O)N[C@@H](Cc1ccc(O)cc1)C(=O)N[C@@H](Cc1ccc(-c2ccccc2)cc1)C(N)=O` (stereo partly drawn) (64Cu complex, metal not drawn) [CBP11], in “in vivo” (blood), the tissue uptake at 2.5 h was found to be 0.21 ± 0.017 %ID/g. Moreover, in “in vivo” (heart), the tissue uptake at 2.5 h worked out at 0.143 ± 0.008 %ID/g. Also, the tissue uptake at 2.5 h in “in vivo” (liver) was 1.3 ± 0.086 %ID/g. Further, in the data set “in vivo” (spleen), the tissue uptake at 2.5 h is 0.408 ± 0.015 %ID/g. In addition, in data set [1] (in vivo, 2.5 h), the “Biodistribution % ID/g, blood” value is recorded as 0.373 ± 0.180 % ID/g; the “Biodistribution % ID/g, heart” value is given as 0.170 ± 0.044 % ID/g; the “Biodistribution % ID/g, liver” value is reported as 0.953 ± 0.069 % ID/g; the “Biodistribution % ID/g, spleen” value is 0.475 ± 0.063 % ID/g.

On to `C[C@@H](O)[C@@H]1NC(=O)[C@@H](NC(=O)[C@H](Cc2c[nH]cn2)NC(=O)[C@H](Cc2c[nH]c3ccccc23)NC(=O)[C@H](CCC(N)=O)NC(=O)CNC(=O)CCC(C(=O)O)N2CCN(CC(=O)O)CCN(CC(=O)O)CC2)CSSC[C@@H](C(=O)N[C@@H](Cc2ccccc2)C(=O)N[C@@H](Cc2ccc(O)cc2)C(=O)NCC(N)=O)NC(=O)[C@H](Cc2ccc(O)cc2)NC(=O)[C@H](Cc2c[nH]cn2)NC(=O)[C@H](Cc2c[nH]cn2)NC(=O)[C@@H]2CCCN2C(=O)[C@H](Cc2ccccc2)NC(=O)[C@H](CCCNC(=N)N)NC(=O)[C@H]([C@@H](C)O)NC1=O` (stereo partly drawn) [CBP5] ({NODAGA}-GQWHCTTRFPHHYCFYG-NH2; disulfide 5-14), for which, in “in vivo” (blood), the tissue uptake at 2 h was found to be 0.11 ± 0.018 %ID/g. Moreover, in “in vivo” (bone), the tissue uptake at 2 h was 0.703 ± 0.343 %ID/g. Further, the tissue uptake at 2 h in the data set “in vivo” (heart) came out at 0.075 ± 0.009 %ID/g. Besides, in the data set “in vivo” (kidney), the tissue uptake at 2 h is 30.5 ± 2.01 %ID/g. Further, the tissue uptake at 2 h in “in vivo” (liver) was found to be 2.63 ± 0.146 %ID/g. Besides, the tissue uptake at 2 h in the data set “in vivo” (lungs) is 0.318 ± 0.135 %ID/g. The tissue uptake at 2 h in the data set “in vivo” (sm. intestine) came to 0.513 ± 0.1 %ID/g. For the same compound, the tissue uptake at 2 h in the data set “in vivo” (spleen) is 0.815 ± 0.42 %ID/g. For the same compound, the tissue uptake dose at 2 h in the data set “in vivo” (Biodistribution % ID/lung) was found to be 0.032 ± 0.016 %ID. The “lung uptake in BM-treated (fibrotic) mice compared to sham, in words” value in data set [1] is “greater lung uptake in BM-treated mice”. In data set [1] (in vivo, 2 h), the “Biodistribution % ID/g, blood” value came out at 0.121 ± 0.028 % ID/g; the “Biodistribution % ID/g, bone” value amounted to 0.490 ± 0.237 % ID/g; the “Biodistribution % ID/g, heart” value came out at 0.094 ± 0.013 % ID/g; the “Biodistribution % ID/g, kidney” value came to 18.368 ± 1.909 % ID/g. Moreover, in data set [1] (in vivo, 2 h), the “Biodistribution % ID/g, liver” value is 3.836 ± 0.770 % ID/g; the “Biodistribution % ID/g, lungs” value amounted to 0.623 ± 0.320 % ID/g; the “Biodistribution % ID/g, sm. intestine” value worked out at 0.431 ± 0.089 % ID/g; the “Biodistribution % ID/g, spleen” value came out at 1.588 ± 0.546 % ID/g. Further, in data set [1] (mouse, in vivo), the “Biodistribution % ID/lung” value stood at 0.016 ± 0.007 % ID/lung and the route of excretion entry is given as “excreted mainly through the kidneys”. For the same compound, binding at rat tail collagen was characterised by a dissociation constant (Kd) of 7.2 ± 5.2 µM.
